Results reported in US20240167082A1.

Target: CD3 (cell surface marker on Jurkat cells and on Ramos cells) (human) (UniProt P07766)
Test: cell-based or functional assay

UniProt P07766, sequence (P07766 23-207): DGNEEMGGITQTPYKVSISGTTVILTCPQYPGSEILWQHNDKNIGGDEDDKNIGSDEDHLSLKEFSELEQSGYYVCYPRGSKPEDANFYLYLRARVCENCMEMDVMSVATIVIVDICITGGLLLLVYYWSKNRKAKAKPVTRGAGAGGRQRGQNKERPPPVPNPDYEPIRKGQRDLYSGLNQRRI

share of drops with labelled cells that cross the Cy5 fluorescence threshold: > 95%
time at which drops cross the Cy5 fluorescence threshold: 20 to 50 min
time at which drops cross the Cy5 fluorescence threshold, Jurkat cells in droplets: 20 to 38 min
time to Cy5 fluorescence in drops with Jurkat cells from a mixed Jurkat and mouse pool: 20 min
Substance: TotalSeqB anti-CD3 antibody (Biolegend cat no. 300477; anti-human CD3-totalseqB Ab, clone UCHT1)
